From doi:10.1101/2022.10.31.514592 (bioRxiv, 2022) come the findings set out here.

Some results are limits rather than exact numbers.

Sequences and labels used below:
B1: S451-1140 IgG (antibody, V domains shown)
VH: EVQLVESGGGLVPPGGSLRLSCAASGFIFSNYAMTWVRQAPGKGLEWVSAISGGGGSTDYADSVKGRFTISRDNSKNTLYLQMNSLRAEDTAVYYCAKDLFGSGWSLFDNWGQGTLVTVSS
VL: not shown
B2: S728-1157 IgG (antibody, V domains shown)
VH: EVQLVESGGGLVQPGGSLRLSCAASGLLVSRNYMNWVRQAPGKGLEWVSIIYSGGSTFYADSVEGRFTISRDESKNTLYLQMNSLRTDDTAVYYCARDLSDYGGIDCWGQGTLVTVSS
VL: ELTQPLSVSMALGQTARISCGGDNVGSQNVHWYQQRPGQAPVLVIYRDSNRPSGIPERFSGSKSGNTATLTISRAQAGDEADYYCQVWDSSTVAFGGGTKLTVL
B3: S626-161 IgG (antibody, V domains shown)
VH: QLQLQESGPGLVKPSEALSLTCTVSGGSISTSNYYWGWIRQPPGKGLEWIGSIYYRGGTHYNPSLKTRVTISVDTSKNQFSLKLSSVTAADTAVYYCARHTYFYDIVGAAVWEPFDIWGQGTMVTVSS
VL: not shown
B4: S451-1140 Fab (Fab, V domains shown)
VH: B1 VH
VL: not shown
B5: S728-1157 Fab (Fab, V domains shown)
VH: B2 VH
VL: B2 VL
B6: S626-161 Fab (Fab, V domains shown)
VH: B3 VH
VL: not shown

One assay deals with spike BA.1 Omicron-6P (SARS-CoV-2, Omicron BA.1, strain, biotinylated (EZ-Link Sulfo-NHS-Biotin) for BLI). Nature of the assay: ELISA. On the technique in general: In an ELISA, binding on a coated surface is turned into a signal by an enzyme label.
B1: the “fold increase of ELISA binding compared with spike BA.1-2P” value was above 3 fold.
Still for that read-out and setting: the figure for B2 is above 3 fold.
On the same count and under the same terms, the figure for B3 is above 3 fold.

In the next assay the target is T1, spike WT-6P (SARS-CoV-2, wildtype (Wuhan-Hu-1 type), UniProt P0DTC2, stabilised, biotinylated (EZ-Link Sulfo-NHS-Biotin) for BLI). The assay can be described thus: ELISA.
On to B3, for which the binding result is recorded as “binds”.

The target in a further assay is T1, spike WT-6P. Nature of the assay: BLI. (In general: BLI is a label-free optical method that tracks binding on a fibre tip over time.)
Turning to B1, the binding result is recorded as “binds”.
Still for that read-out and setting: the entry for B4 is “binds”.
As for B2, the binding result is recorded as “binds”.
As to B5, the binding result was “binds”.
Same read-out and setting: in the case of B6 it was “binds”.
